Values quoted from earlier work as cited in publication PMC6347146.

Target: IL-21R (Homo sapiens) (UniProt Q9HBE5)
Chain of UniProt Q9HBE5 (Q9HBE5 20-232): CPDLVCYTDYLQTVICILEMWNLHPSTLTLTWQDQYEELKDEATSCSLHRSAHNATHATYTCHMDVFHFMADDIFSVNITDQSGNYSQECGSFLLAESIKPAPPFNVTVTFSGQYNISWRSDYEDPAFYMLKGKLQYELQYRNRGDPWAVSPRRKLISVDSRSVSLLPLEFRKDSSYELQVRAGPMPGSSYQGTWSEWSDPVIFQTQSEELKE

Kd: 0.07 nM
Substance: IL-21 (from UniProt Q9HBE4)
